Measured values taken from the supplement of paper PMC11246515.
± gives the standard deviation of the averaged measurements.

Test: total protein half-life in vivo (active degradation + dilution); higher = more stable protein
[1] = E. coli NCM3722 delta-clpP delta-lon delta-hslV, growth: N-lim chemostat, doubling time 6 h
[2] = E. coli NCM3722 delta-clpP, growth: N-lim chemostat, doubling time 6 h
[3] = E. coli NCM3722 delta-hslV, growth: N-lim chemostat, doubling time 6 h
[4] = E. coli NCM3722 delta-lon, growth: N-lim chemostat, doubling time 6 h
[5] = E. coli NCM3722 delta-smpB, growth: N-lim chemostat, doubling time 6 h
[6] = wild type E. coli NCM3722, growth: C-lim chemostat, doubling time 3 h
[7] = wild type E. coli NCM3722, growth: C-lim chemostat, doubling time 6 h
[8] = wild type E. coli NCM3722, growth: C-lim chemostat, doubling time 12 h
[9] = wild type E. coli NCM3722, growth: N-lim chemostat, doubling time 6 h
[10] = wild type E. coli NCM3722, growth: N-lim chemostat, doubling time 12 h
[11] = wild type E. coli NCM3722, growth: P-lim chemostat, doubling time 6 h
[12] = wild type E. coli NCM3722, growth: P-lim chemostat, doubling time 12 h

Row | Sequence | total protein half-life in vivo [1] [h] | total protein half-life in vivo [2] [h] | total protein half-life in vivo [3] [h] | total protein half-life in vivo [4] [h] | total protein half-life in vivo [5] [h] | total protein half-life in vivo [6] [h] | total protein half-life in vivo [7] [h] | total protein half-life in vivo [8] [h] | total protein half-life in vivo [9] [h] | total protein half-life in vivo [10] [h] | total protein half-life in vivo [11] [h] | total protein half-life in vivo [12] [h]
1 | MKVLIVESEFLHQDTWVGNAVERLADALSQQNVTVIKSTSFDDGFAILSSNEAIDCLMFSYQMEHPDEHQNVRQLIGKLHERQQNVPVFLLGDREKALAAMDRDLLELVDEFAWILEDTADFIAGRAVAAMTRYRQQLLPPLFSALMKYSDIHEYSWAAPGHQGGVGFTKTPAGRFYHDYYGENLFRTDMGIERTSLGSLLDHTGAFGESEKYAARVFGADRSWSVVVGTSGSNRTIMQACMTDNDVVVVDRNCHKSIEQGLMLTGAKPVYMVPSRNRYGIIGPIYPQEMQPETLQKKISESPLTKDKAGQKPSYCVVTNCTYDGVCYNAKEAQDLLEKTSDRLHFDEAWYGYARFNPIYADHYAMRGEPGDHNGPTVFATHSTHKLLNALSQASYIHVREGRGAINFSRFNQAYMMHATTSPLYAICASNDVAVSMMDGNSGLSLTQEVIDEAVDFRQAMARLYKEFTADGSWFFKPWNKEVVTDPQTGKTYDFADAPTKLLTTVQDCWVMHPGESWHGFKDIPDNWSMLDPIKVSILAPGMGEDGELEETGVPAALVTAWLGRHGIVPTRTTDFQIMFLFSMGVTRGKWGTLVNTLCSFKRHYDANTPLAQVMPELVEQYPDTYANMGIHDLGDTMFAWLKENNPGARLNEAYSGLPVAEVTPREAYNAIVDNNVELVSIENLPGRIAANSVIPYPPGIPMLLSGENFGDKNSPQVSYLRSLQSWDHHFPGFEHETEGTEIIDGIYHVMCVKA | 5.82 ± 0.47 | 4.96 ± 1.1 | 6.09 ± 0.29 | 5.74 ± 0.22 | 5.38 ± 0.21 | 3.193 ± 0.023 | 5.14 ± 0.23 | 11.5 ± 0.12 | 6.03 ± 0.28 | 12.1 ± 2 | 6.14 ± 0.3 | 11.5 ± 0.15
2 | MKVSVPGMPVTLLNMSKNDIYKMVSGDKMDVKMNIFQRLWETLRHLFWSDKQTEAYKLLFNFVNNQTGNINASEYFTGAINENEREKFINSLELFNKLKTCAKNPDELVAKGNMRWVAQTFGDIELSVTFFIEKNKICTQTLQLHKGQGNLGVDLRKAYLPGVDMRDCYLGKKTMKGSNDILYERPGWNANLGVLPRTVLPRTVLTRTVLTWTVLP | 4.07 |  |  |  |  |  |  |  |  |  |  | 
3 | MKWDWIFFDADETLFTFDSFTGLQRMFLDYSVTFTAEDFQDYQAVNKPLWVDYQNGAITSLQLQHGRFESWAERLNVEPGKLNEAFINAMAEICTPLPGAVSLLNAIRGNAKIGIITNGFSALQQVRLERTGLRDYFDLLVISEEVGVAKPNKKIFDYALEQAGNPDRSRVLMVGDTAESDILGGINAGLATCWLNAHHREQPEGIAPTWTVSSLHELEQLLCKH [P0A8Y1] | 5.28 ± 0.098 | 0.513 |  | 0.534 | 0.471 ± 0.024 | 0.631 ± 0.016 | 0.671 | 2.97 | 1.11 | 1.51 | 0.949 ± 0.33 | 
4 | MKWLCSVGIAVSLALQPALADDLFGNHPLTPEARDAFVTELLKKMTVDEKIGQLRLISVGPDNPKEAIREMIKDGQVGAIFNTVTRQDIRAMQDQVMELSRLKIPLFFAYDVLHGQRTVFPISLGLASSFNLDAVKTVGRVSAYEAADDGLNMTWAPMVDVSRDPRWGRASEGFGEDTYLTSTMGKTMVEAMQGKSPADRYSVMTSVKHFAAYGAVEGGKEYNTVDMSPQRLFNDYMPPYKAGLDAGSGAVMVALNSLNGTPATSDSWLLKDVLRDQWGFKGITVSDHGAIKELIKHGTAADPEDAVRVALKSGINMSMSDEYYSKYLPGLIKSGKVTMAELDDAARHVLNVKYDMGLFNDPYSHLGPKESDPVDTNAESRLHRKEAREVARESLVLLKNRLETLPLKKSATIAVVGPLADSKRDVMGSWSAAGVADQSVTVLTGIKNAVGENGKVLYAKGANVTSDKGIIDFLNQYEEAVKVDPRSPQEMIDEAVQTAKQSDVVVAVVGEAQGMAHEASSRTDITIPQSQRDLIAALKATGKPLVLVLMNGRPLALVKEDQQADAILETWFAGTEGGNAIADVLFGDYNPSGKLPMSFPRSVGQIPVYYSHLNTGRPYNADKPNKYTSRYFDEANGALYPFGYGLSYTTFTVSDVKLSAPTMKRDGKVTASVQVTNTGKREGATVVQMYLQDVTASMSRPVKQLKGFEKITLKPGETQTVSFPIDIEALKFWNQQMKYDAEPGKFNVFIGTDSARVKKGEFELL | 6.82 ± 0.31 | 6.82 ± 0.92 | 6.51 ± 0.073 | 6.84 ± 0.088 | 5.91 ± 0.13 | 3.14 ± 0.092 | 6.17 ± 0.12 | 14.2 ± 1.2 | 6.21 ± 0.43 | 13.9 ± 0.67 | 6.21 ± 0.027 | 14.5 ± 1.1
5 | MKYKLLPCLLAIFLTGCDRTEVTLSFTPEMASFSNEFDFDPLRGPVKDFTQTLMDEQGEVTKRVSGTLSEEGCFDSLELLDLENNTVVALVLDANYYRDAETLEKRVRLQGKCQLAELPSAGVSWETDDNGFVIKASSKQMQMEYRYDDQGYPLGKTTKSNDKTLSVSATPSTDPIKKLDYTAVTLLNNQRVGNVKQSCEYDSHANPVDCQLIIVDEGVKPAVERVYTIKNTIDYY | 2.15 ± 0.28 | 2 ± 0.022 | 2.16 ± 0.13 | 1.87 | 1.81 ± 0.19 | 1.64 ± 0.1 | 2.38 ± 0.077 | 2.85 ± 0.52 | 2.24 ± 0.56 | 2.51 ± 0.27 | 2.13 ± 0.32 | 3.98 ± 0.97
6 | MKYQQLENLESGWKWKYLVKKHREGELITRYIEASAAQEAVDVLLSLENEPVLVNGWIDKHMNPELVNRMKQTIRARRKRHFNAEHQHTRKKSIDLEFIVWQRLAGLAQRRGKTLSETIVQLIEDAENKEKYANKMSSLKQDLQALLGKE [P0A8N0] |  | 5.544 ± 0.014 | 4.69 ± 0.85 | 5.46 ± 0.53 | 4.27 ± 1.1 | 3.13 ± 0.038 | 5.74 ± 0.2 | 10.9 ± 5.6 | 3.21 ± 1.6 | 10.7 ± 5.8 |  | 9.592 ± 0.066
7 | MLAFLNQVRKPTLDLPLEVRRKMWFKPFMQSYLVVFIGYLTMYLIRKNFNIAQNDMISTYGLSMTQLGMIGLGFSITYGVGKTLVSYYADGKNTKQFLPFMLILSAICMLGFSASMGSGSVSLFLMIAFYALSGFFQSTGGSCSYSTITKWTPRRKRGTFLGFWNISHNLGGAGAAGVALFGANYLFDGHVIGMFIFPSIIALIVGFIGLRYGSDSPESYGLGKAEELFGEEISEEDKETESTDMTKWQIFVEYVLKNKVIWLLCFANIFLYVVRIGIDQWSTVYAFQELKLSKAVAIQGFTLFEAGALVGTLLWGWLSDLANGRRGLVACIALALIIATLGVYQHASNEYIYLASLFALGFLVFGPQLLIGVAAVGFVPKKAIGAADGIKGTFAYLIGDSFAKLGLGMIADGTPVFGLTGWAGTFAALDIAAIGCICLMAIVAVMEERKIRREKKIQQLTVA [P0AGC0] |  |  |  |  |  | 1.74 ± 0.042 | 1.96 ± 0.031 | 3.78 ± 2.4 |  |  |  | 
